Data taken from patent US20150315275A1 (AstraZeneca / MedImmune, published 2015).

T1: B7-H4 fusion protein Variant 1: IgV residues 29-149 of SEQ ID NO:1 (human, UniProt Q7Z7D3 29-149)
T1 construct: Human IgG1 Fc fusion protein; also called IgV only; not shown: human IgG1 Fc
T1 chain: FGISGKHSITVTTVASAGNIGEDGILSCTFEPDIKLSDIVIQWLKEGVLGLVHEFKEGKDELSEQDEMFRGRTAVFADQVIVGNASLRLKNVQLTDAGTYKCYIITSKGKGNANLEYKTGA

T2: B7-H4 fusion protein Variant 3: IgV residues 29-158 of SEQ ID NO:1 (human, UniProt Q7Z7D3 29-158)
T2 construct: Human IgG1 Fc fusion protein; also called IgV only; not shown: human IgG1 Fc
T2 chain: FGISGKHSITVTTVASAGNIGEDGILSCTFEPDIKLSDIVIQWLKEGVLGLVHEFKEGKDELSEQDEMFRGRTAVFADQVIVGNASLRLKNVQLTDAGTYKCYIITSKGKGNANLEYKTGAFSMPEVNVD

T3: B7-H4 fusion protein Variant 2: IgV residues 29-154 of SEQ ID NO:1 (human, UniProt Q7Z7D3 29-154)
T3 construct: Human IgG1 Fc fusion protein; also called IgV only; not shown: human IgG1 Fc
T3 chain: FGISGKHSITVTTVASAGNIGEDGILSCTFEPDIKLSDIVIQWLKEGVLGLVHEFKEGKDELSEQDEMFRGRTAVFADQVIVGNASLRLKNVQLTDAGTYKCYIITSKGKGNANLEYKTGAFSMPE

T4: human B7-H4 expressed on cells (human, UniProt Q7Z7D3 25-282)
T4 construct: the cell line is named under assay or readout; also called full length human B7-H4 on HEK293 cells; 293T.hB7-H4
T4 sequence: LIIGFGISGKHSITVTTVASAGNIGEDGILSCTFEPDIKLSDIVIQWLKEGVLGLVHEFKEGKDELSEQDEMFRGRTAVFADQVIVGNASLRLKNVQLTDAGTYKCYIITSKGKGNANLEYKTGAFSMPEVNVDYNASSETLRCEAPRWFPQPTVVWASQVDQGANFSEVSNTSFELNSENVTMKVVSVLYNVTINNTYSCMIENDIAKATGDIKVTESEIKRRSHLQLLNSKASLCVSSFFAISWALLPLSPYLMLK


Experiments:
[1] = biological target: T5, B7-H4-Ig fusion protein (human); experiment: antibody captured on B7-H4-Ig fusion protein, detected with biotin-anti-mouse IgG1 and Europium-Streptavidin
T5 construct: also called human B7-H4 Ig
Text: Serum was collected for initial evaluation of PK (peak and trough post 4th dose). Antibody was captured from serum with a B7-H4-Ig fusion protein, and detected with biotin-anti-mouse IgG1 (6H3.mIgG1) or IgG2a (6H3.mIgG2a) and detected with Europium-Streptavidin.

[2] = biological target: T1, B7-H4 fusion protein Variant 1: IgV …; experiment: ELISA, B7-H4 Fc fusion protein immobilized at 1 µg/ml, mouse antibody titrated, anti-mouse Ig HRP
Method: (§1) 100 μl 1 μg/ml human IgG1 Fc fusion proteins diluted in PBS consisting of different segments of B7-H4 Extracellular domains were immobilized on flat bottom 96 well plates (Costar 9017) overnight at 4° C. […] Plates were washed twice with PBS+0.1% PS-20 and blocked with 200 μl/well PBS 10% FBS at RT for 1 hr. A titration of mouse anti-human B7-H4 antibodies 2H9, 2D1, 2E11, 6H3, 8E11 or H74 diluted in PBS 10% FBS were added to the plates and incubated at RT for 1 hr. Plates were washed three times and 100 μl 1 μg/ml anti-mouse Ig HRP (Sigma) was added to each well and incubated at RT for 1 hr. Plates were washed six times and 100 μl TMB substrate (SurModics) was added to each well for 5-15 mins. 100 μl stop solution (0.1M Sulfuric acid) was added to each well. Plates were read at Absorbance 450 nm by PerkinElmer EnVision 2104 Multilabel Reader.

[3] = biological target: T2, B7-H4 fusion protein Variant 3: IgV …; experiment: as above
Method: as §1

[4] = biological target: T3, B7-H4 fusion protein Variant 2: IgV …; experiment: as above
Method: as §1

[5] = biological target: T5, B7-H4-Ig fusion protein; experiment: ELISA, B7-H4 Ig coated on the plate, purified antibody, HRP goat anti-mouse
Method: B7-H4 Ig was coated onto microtiter plates, washed, blocked, and washed again. Varying concentrations of anti-B7-H4 antibodies were allowed to bind. Purified proteins were used for clones H74, 6H3, and 8E11. Conditioned media from hybridomas 2D1, 2H9, and 2E11 were used. Following incubation, the plates were washed. Bound anti-B7-H4 was detected using HRP-conjugated goat anti-mouse (Jackson ImmunoResearch).

[6] = biological target: T4, human B7-H4 expressed on cells; experiment: flow cytometry on HEK293 cells expressing full length human B7-H4, labelled secondary antibody, 20 min at 4 C
Method: In order to determine the kinetics of binding of antibody 6H3 binding to B7-H4, with HEK293 cells that expressed full length human B7-H4 were incubated (for 20 minutes at 4° C. with 1×10⁵ in 200 μl wells) in the presence of varying concentrations of antibody (0, 0.01 ng, 0.03 ng, 0.1 ng, 0.3 ng, 1 ng, 10 ng, 30 ng, 100 ng, 300 ng, 1000 ng, 3000 ng, 10000 ng, or 30000 ng) in RPMI complete media (10% FBS). Binding was analyzed (FACS Canto II) using a FACS staining plate after incubation with a secondary antibody (anti-human Ig PE, anti-mouse Ig APC, anti-hamster Ig PE or anti-rat Ig PE).

T5 sequence (chain, as listed by the source limits assumed): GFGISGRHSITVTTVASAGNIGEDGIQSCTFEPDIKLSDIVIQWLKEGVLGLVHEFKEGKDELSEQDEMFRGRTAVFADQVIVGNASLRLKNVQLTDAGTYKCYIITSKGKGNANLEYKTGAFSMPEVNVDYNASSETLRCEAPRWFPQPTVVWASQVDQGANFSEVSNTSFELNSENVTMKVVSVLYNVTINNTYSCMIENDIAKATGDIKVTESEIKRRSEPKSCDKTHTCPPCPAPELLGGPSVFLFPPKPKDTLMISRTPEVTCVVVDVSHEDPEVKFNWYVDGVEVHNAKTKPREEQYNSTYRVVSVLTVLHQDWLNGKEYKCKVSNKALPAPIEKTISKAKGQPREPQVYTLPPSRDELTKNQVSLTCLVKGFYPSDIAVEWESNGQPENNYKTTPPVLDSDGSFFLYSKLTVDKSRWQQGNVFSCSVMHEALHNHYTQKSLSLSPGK

| Binder | EC50 (read off the curve) [1] [ng/mL] | binding result [2] | binding result [3] | binding result [4] | EC50 (read off the curve) [5] [ng/mL] | EC50 (read off the curve) [6] [nM] |
| --- | --- | --- | --- | --- | --- | --- |
| mouse 6H3.m1 (mouse IgG1) (antibody, V domains shown, 6H3 as mouse IgG1; also called 6H3.mIgG1) VH: EVQLQQSGPVLVKPGTSVKMSCKASGYTFTDYYMNWVKQSHGKSLEWIGVINPYNGDTTYNQKFKGKATLTVDKSSSTAYMEVNSLTFEDSAVYYCARYPESTYWGQGTLVTVSA VL: DVVMTQTPLSLPVSLGDQASISCRSSQSLVHINGNTYLHWYLQKPGQSPKVLIYKVSNRFSGVPDRFSGSGSGTDFTLKISRVEAEDLGVYFCSQSTHVPLTFGAGTKLELK | ~10 |  |  |  |  |  |
| murine anti-human B7-H4 antibody 6H3 (antibody, V domains shown, Mouse monoclonal antibody; also called clone 6H3; mouse anti-human B7-H4 6H3) VH: EVQLQQSGPVLVKPGTSVKMSCKASGYTFTDYYMNWVKQSHGKSLEWIGVINPYNGDTTYNQKFKGKATLTVDKSSSTAYMEVNSLTFEDSAVYYCARYPESTYWGQGTLVTVSA VL: DVVMTQTPLSLPVSLGDQASISCRSSQSLVHINGNTYLHWYLQKPGQSPKVLIYKVSNRFSGVPDRFSGSGSGTDFTLKISRVEAEDLGVYFCSQSTHVPLTFGAGTKLELK |  | no binding (tested: 16 ng/ml) | no binding (tested: 16 ng/ml) | no binding (tested: 16 ng/ml) | ~10 | ~6 |
